Columns and labels:
Details in all cases: LightShift EMSA: 1x binding buffer, 2.5% glycerol, 5 mM MgCl2, 0.05% NP-40, 5 mM EDTA, 20 ng probe, 0-0.5 ng protein (so in the source), 20 uL, 20 min at 26 C; 6% …
[1] = molecular target: T1, OmpR (Pseudomonas aeruginosa PA14) (UniProt A0A0H2ZIR0); test: competition
T1 sequence: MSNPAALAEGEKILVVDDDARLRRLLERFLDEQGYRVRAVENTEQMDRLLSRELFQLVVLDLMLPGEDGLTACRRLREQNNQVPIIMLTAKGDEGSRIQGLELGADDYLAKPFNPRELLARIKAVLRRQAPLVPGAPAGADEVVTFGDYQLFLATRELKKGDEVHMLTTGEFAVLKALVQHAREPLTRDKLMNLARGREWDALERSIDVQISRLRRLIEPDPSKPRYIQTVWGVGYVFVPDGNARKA

[2] = molecular target: T2, OxyR (Pseudomonas aeruginosa PA14) (UniProt A0A0H2ZI92); test: competition
T2 sequence: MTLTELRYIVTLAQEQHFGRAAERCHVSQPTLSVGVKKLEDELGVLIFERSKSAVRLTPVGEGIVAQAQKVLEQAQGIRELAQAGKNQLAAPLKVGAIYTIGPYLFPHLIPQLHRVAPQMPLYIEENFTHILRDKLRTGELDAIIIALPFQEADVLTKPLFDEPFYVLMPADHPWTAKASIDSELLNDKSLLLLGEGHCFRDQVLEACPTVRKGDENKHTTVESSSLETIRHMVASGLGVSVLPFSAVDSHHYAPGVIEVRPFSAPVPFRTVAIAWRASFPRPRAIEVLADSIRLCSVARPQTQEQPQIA

[3] = molecular target: T1, OmpR (Pseudomonas aeruginosa PA14); test: EMSA
[4] = molecular target: T2, OxyR (Pseudomonas aeruginosa PA14); test: EMSA

Sequence	binding [1]	binding [2]	binding [3]	binding [4]
CGATGCGCCCGTCGGCGTAGCGTTTATGTAGTTCAGCGCGCGATACACCTGTCCCTTGAAGGCGGAGGGATACGGGCTTTCCTCGTAGAAGCCGGTGGCTTCGTTGAGCACCTCCCAATCGCTGTCCTGGGTCAGCACGGCGATTCCGGGCGGGGTCGCATGATACAGGCCGTTCGTGGGGCGCCAGTATTCGATGGTTCGGGGCAT (double strand) [Unrelated DNA (control)]	no binding	no binding	–	–
GGGAGTCCAACGAAAATTTTATTTTGCAAATCCATAGACCTGTTCTAGCGTCTTTTGTAGTTCGTCGCCAGTGACGGACCAGAGGGATCGCCAAGGACAGGTTCTGCGCCGTTTTCCCTGTCATGCCTGTGATCCAGCAAGGGACTGCGATGATCAGGGCATCCCCCGATGCATTGCGCCCCCACCATTGCATCGGAGTCAGCCGCC (double strand) [Bio-PH3-T6SS left]	–	–	binds	binds
